B1: SASS6 (parent)
chain: QKELQDVGQSLRIKEQEVCKLQEQ
B2: HDAC6 (parent)
chain: ACAQLATGAACRLVEAVLSGEVLN
B3: SMG5 (parent)
chain: TRKLSPGKKRCKDIKRLLVNFMYL

Variants of: B1
Test: protein stability index of a GFP-peptide fusion (GPS, HEK-293T) (PSI 1-6); higher = more stable
Settings: c terminus: a fixed tail appended
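Also: lentivirally expressed fusions sorted by FACS into six bins by GFP to DsRed ratio, PSI derived from sequencing read proportions per bin multiplied by bin number.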

Protein stability index, by site and new letter:
E23: D 5.27; G 5.58; K 4.89; F 4.52; L 4.69; S 4.82
S10: E 5.72; L 5
K20: R 4.82; V 5.26; C 5.11
L11: F 5.26; Q 5.54; C 5.09; D 5.75; K 5.12; V 5.39
E3: I 4.37; R 5.25; G 4.68
L4: T 5.23; R 4.96; N 5.1; P 5.34; G 5.59
E17: H 5.02
Q5: L 2.94; Y 4.32; V 5.13; H 4.91; S 5.16; F 4.27
G8: L 3.83; C 4.92
V18: G 4.49; D 5.94; N 5.19
R12: C 4.81; D 4.03; K 5.55; I 5.14
L21: Y 5.38; I 5.43; P 5.4
I13: N 5.31; S 5.45; T 5.13; E 5.34
Q16: M 4.96; T 5.28; V 5.21; H 5.13; D 5.43; K 5.48
K2: P 4.2; H 5.46; I 4.88; S 5.43; G 4.65
V7: C 3.36; K 5.16; E 5.11; P 4.8; Q 5.82
C19: A 4.79; V 5.25; H 5.61; M 5.34
E15: T 4.56; W 2.06; C 4.11; Q 4.66; G 5.1; F 3.24
Q22: T 5.06; H 4.79; C 4.34; L 4.44; E 5.4
Q9: A 5.52; P 5.56; E 4.49
K14: D 5.63; R 5.19
D6: A 5.17; F 3.81; E 5.05; L 4.14; G 5; S 4.91; Q 5.31
Q24: I 4.7; W 4.84; D 5.04; G 5.12; M 5.05; S 4.43; H 4.95

Variants of: B2
Test: as above
Settings: c terminus: a fixed tail appended

Protein stability index: each site, then its substitutions
A6: E 2.35; I 3.57; T 1.39; G 2.25; H 1; N 1.48; C 2.49; K 1.19; Q 2.74; D 2.11
L5: H 1.42; I 1.51; D 2.61; P 2.2; M 2.68; G 2.42; E 2.48; T 1.37; N 1.81; V 1.16; Q 2.67
V17: Q 1.85; H 2.75; D 3.56; T 2.04; S 1.93; P 2.5
R12: N 2.52; G 1.26; S 1.65; A 2.3; D 1.48; P 2.66; Y 3.46; Q 1.97; M 3.3; T 2.92
C11: P 2.27; R 1.78; K 2.29; A 2.9; E 1.04
A10: Y 1.49; I 2.01; D 2.22; K 2.38; E 1.82; C 2.16; Q 1.71; R 1.7; P 2; G 1.43
A16: L 2.77; R 2.18; P 2.28; D 2.78; Y 3.51
A1: C 1.16; S 3.19; G 1; K 1.92; E 3.75; T 4.34; P 1.53
N24: D 1.87; F 1.85; K 2.61
C2: D 2.98; S 1.08; E 2; L 3.12; T 3.63; P 1.82; N 1.21; Q 2.97; K 1.99
V14: H 2.56; T 1.75; G 2.17; K 1.97; D 2.53; S 2.15; C 3.54; N 3.78; Q 2.74; A 2.05; M 3.28
E21: D 2.6; W 2.67; I 3.07; Y 3.01; K 1.09; N 3.96; C 2.87
L23: Y 3.97; N 1.54; D 2.49; K 1.7; P 1.96; E 2.83; Q 1.05; A 2.22; W 2.42; V 1.26; H 3.51; M 4.41
G20: F 3.97; D 2.25; L 3.07; P 2.07; R 2.86; I 2.15; E 1.43; S 2.89
L13: M 2.93; P 2.53; D 3.58; S 1.68; T 1.93; H 3.21; K 3.91; N 2.06; R 2.5
T7: N 1.54; D 1.79; S 2.78; M 3.57
G8: C 2.74; M 1.28; D 2.67; T 3.69; S 1.94
Q4: P 1.04; A 2.68; I 1.55; E 2.92; K 2.69; Y 4.38
A9: Y 1.68; K 2.23; N 1.09; I 3.52; P 2.4; W 2.99; D 2.61; E 3.49; G 1.69; R 3
E15: N 2.52; H 4.01; P 1.05
V22: A 3.65; F 2.71; K 1.01; H 4.01; P 2.42; G 2.44; L 2.09; Y 3.8; M 3.31; D 2.37; E 1.84; S 1.36
S19: P 2.98; A 4.12
L18: A 1.69; Q 2.2; D 3.68; C 1.45; R 2.29; M 3.05; P 3.73; H 2.47; T 2.02; Y 3.82; S 2.04; K 2.1
A3: D 2.88; N 1.68; S 4.04; F 3.94; W 2.17

Variants of: B3
Test: as above
Settings: c terminus: a fixed tail appended

Protein stability index of substitutions, site by site:
F21: P 1.6; W 1.91; R 1.88; K 2.12; N 1.97; S 2.88; Q 1.71; T 1.99; Y 1.76
L24: R 2.39; Q 2.04; S 1.98; F 2.53; A 2.34; T 2.02; K 2.46; E 1.96; G 2.92; D 1.2; I 4.07; Y 2.08; W 1.9; P 2.63; C 1.39; H 1.55; M 3
Y23: D 2.01; T 2.18; F 1.64; K 2.93; R 2.05; H 2.35; A 2.85; I 3.31; P 1.81; M 2.94; W 2.16; V 4.04; S 3.81
M22: H 1.65; S 1.39; K 1.86; F 2.29; V 2.33; Q 1.34; R 2.4; T 2.11; Y 2.96; D 2.34; N 1.95; C 1.75; G 2.04; E 2.45; P 2.39

Source: the supplement of paper PMC10567573
